The labels stand for the following.
B1: M398E: carboxypeptidase Y S1' mutant, substitution M398E (protein, UniProt P00729 112-532, looked up, variant M398E)
Carboxypeptidase Y: KIKDPKILGIDPNVTQYTGYLDVEDEDKHFFFWTFESRNDPAKDPVILWLNGGPGCSSLTGLFFELGPSSIGPDLKPIGNPYSWNSNATVIFLDQPVNVGFSYSGSSGVSNTVAAGKDVYNFLELFFDQFPEYVNKGQDFHIAGESYAGHYIPVFASEILSHKDRNFNLTSVLIGNGLTDPLTQYNYYEPMACGEGGEPSVLPSEECSAMEDSLERCLGLIESCYDSQSVWSCVPATIYCNNAQLAPYQRTGRNVYDIRKDCEGGNLCYPTLQDIDDYLNQDYVKEAVGAEVDHYESCNFDINRNFLFAGDWMKPYHTAVTDLLNQDLPILVYAGDKDFICNWLGNKAWTDVLPWKYDEEFASQKVRNWTASITDEVAGEVKSYKHFTYLRVFNGGHEVPFDVPENALSMVNEWIHGGFSL
B2: T60F + M398F: carboxypeptidase Y double substitution mutant T60F + M398F (protein, UniProt P00729 112-532, looked up, variant T60F M398F)
Carboxypeptidase Y: B1 Carboxypeptidase Y with T60F, E398F
B3: T60M: carboxypeptidase Y S1' mutant, substitution T60M (protein, UniProt P00729 112-532, looked up, variant T60M)
Carboxypeptidase Y: B1 Carboxypeptidase Y with T60M, E398M
B4: M398C: carboxypeptidase Y S1' mutant, substitution M398C (protein, UniProt P00729 112-532, looked up, variant M398C)
Carboxypeptidase Y: B1 Carboxypeptidase Y with E398C
B5: T60L: carboxypeptidase Y S1' mutant, substitution T60L (protein, UniProt P00729 112-532, looked up, variant T60L)
Carboxypeptidase Y: B1 Carboxypeptidase Y with T60L, E398M
B6: T60W: carboxypeptidase Y S1' mutant, substitution T60W (protein, UniProt P00729 112-532, looked up, variant T60W)
Carboxypeptidase Y: B1 Carboxypeptidase Y with T60W, E398M
B7: T60V: carboxypeptidase Y S1' mutant, substitution T60V (protein, UniProt P00729 112-532, looked up, variant T60V)
Carboxypeptidase Y: B1 Carboxypeptidase Y with T60V, E398M
B8: M398Y: carboxypeptidase Y S1' mutant, substitution M398Y (protein, UniProt P00729 112-532, looked up, variant M398Y)
Carboxypeptidase Y: B1 Carboxypeptidase Y with E398Y
B9: M398F: carboxypeptidase Y S1' mutant, substitution M398F (protein, UniProt P00729 112-532, looked up, variant M398F)
Carboxypeptidase Y: B1 Carboxypeptidase Y with E398F
B10: N51Q + M398L: carboxypeptidase Y mutant N51Q + M398L (protein, UniProt P00729 112-532, looked up, variant N51Q M398L)
Carboxypeptidase Y: B1 Carboxypeptidase Y with N51Q, E398L

Where a chain is given by its changes, count along the chain named. In names and notes the source's numbering stands. Entries after “also recorded” stand apart in the source; their conditions may differ. Marks after values point to notes of the source that are not given here. Some results are limits rather than exact numbers.

The first test can be described thus: Transpeptidation of FA-Ala-Xaa-OH with H-Gly-NH2, Table 2. In kind it is biochemical. To be noted: FA-Ala-Ala-OH 0.2 mM; 1.9 M H-Gly-NH2; pH 7.5; room temperature. As for the experimental part: (§1) Transamidation reactions were carried out generally as described in PCT Application WO 95/20039. In general, the method included dissolving the nucleophile (H-Leu-NH2, unless otherwise indicated) in 50 mM HEPES, 5 mM EDTA and adjusting the pH to 7.5, 5 μl of peptide substrate (8 mM Bz-G-A-R-A-R-A-OH, unless otherwise indicated, in methanol) was added to 190 μl nucleophile solution followed by 5 μl enzyme, resulting in a substrate concentration of 0.2 mM.
(§2) During the reaction, 20 μl aliquots were removed from the reaction mixture and added to 50 μl 1% trifluoroacetic acid to quench the reaction. The reactant composition was determined by HPLC using a Waters HPLC equipped with a C-18 Waters Novapac 4μ reverse phase column and various gradients of acetonitrile in 0.1% trifluoroacetic acid. The separation was monitored at 254 nm allowing the direct quantification of the products from the integrated peak areas. The composition of the reaction mixture was determined at least twvice during the reaction, the first when 20-50% (preferably 35%) of the substrate had been consumed in the reaction and the second time when 50-90% (preferably 80%) of the peptide substrate had been consumed.
(§3) The fraction of aminolysis (fa) was expressed as the ratio between the formed aminolysis product and the sum of all products formed. Unconsumed substrate was disregarded in the calculations.
Site specific mutagenesis was performed as described for Example 1 to produce the S1 mutants used below.
Transamidation reactions were performed as described for Example 1.
Regarding B1, the “Fraction of aminolysis (fa), P1' Ala” value was determined as 0.92.
Same read-out and setting: in the case of B2 it was 0.86; in that of B3, 0.78.
Turning to B4, the “Fraction of aminolysis (fa), P1' Ala” value came to 0.93.
On the same count and under the same terms, in the case of B5 it was 0.91.
The same measure, in the same setting: the value for B6 was 0.93; that for B7 was 0.94.
Same read-out and setting: in the case of B8 it was 0.90; in that of B9, 0.87.

Still in this test, the particulars now being: FA-Ala-Leu-OH 0.2 mM; 1.9 M H-Gly-NH2; pH 7.5; room temperature.
For B1, the “Fraction of aminolysis (fa), P1' Leu” value is listed as 0.84.
Consider B2, for which the “Fraction of aminolysis (fa), P1' Leu” value is recorded as 0.86.
Still for that read-out and setting: in the case of B3 it was 0.03; in that of B4, 0.75.
Consider B5, for which the “Fraction of aminolysis (fa), P1' Leu” value was 0.13.
Same read-out and setting: the value for B6 was 0.45; that for B7 was 0.15; that for B8 was 0.90.
Same read-out and setting: the value for B9 was 0.85.

Still in this test, the particulars now being: FA-Ala-Met-OH 0.2 mM; 1.9 M H-Gly-NH2; pH 7.5; room temperature.
In the case of B1, the “Fraction of aminolysis (fa), P1' Met” value amounted to 0.74.
On the same count and under the same terms, the value for B2 was 0.82.
On the same count and under the same terms, the value for B3 was 0.01; that for B4 was 0.65; that for B5 was 0.08.
Regarding B6, the “Fraction of aminolysis (fa), P1' Met” value is given as 0.49.
On the same count and under the same terms, in the case of B7 it was 0.17; in that of B8, 0.90; in that of B9, 0.86.

Still in this test, the particulars now being: FA-Ala-Phe-OH 0.2 mM; 1.9 M H-Gly-NH2; pH 7.5; room temperature.
Consider B1, for which the “Fraction of aminolysis (fa), P1' Phe” value is 0.71.
For the molecule B2, the “Fraction of aminolysis (fa), P1' Phe” value came out at 0.66.
On the same count and under the same terms, in the case of B3 it was 0.18; in that of B4, 0.64.
On the same count and under the same terms, the value for B5 was 0.24; that for B6 was 0.47.
On to B7, for which the “Fraction of aminolysis (fa), P1' Phe” value amounted to 0.08.
The same measure, in the same setting: the value for B8 was 0.92; that for B9 was 0.85.

Still in this test, the particulars now being: FA-Ala-Val-OH 0.2 mM; 1.9 M H-Gly-NH2; pH 7.5; room temperature.
Turning to B1, the “Fraction of aminolysis (fa), P1' Val” value is given as 0.82.
As to B2, the “Fraction of aminolysis (fa), P1' Val” value stood at 0.73.
Same read-out and setting: in the case of B3 it was 0.15; in that of B4, 0.52; in that of B5, 0.17.
As to B6, the “Fraction of aminolysis (fa), P1' Val” value is listed as 0.39.
On the same count and under the same terms, the value for B7 was 0.29.
Turning to B8, the “Fraction of aminolysis (fa), P1' Val” value stood at 0.89.
As for B9, the “Fraction of aminolysis (fa), P1' Val” value is 0.83.

The test is the same for the next values; noted with them: larger, hydrophobic leaving group such as leucine.
For B1, the “fraction of aminolysis compared to wild type, in words” value is “improvement in fraction of aminolysis obtained; also recorded: most dramatic improvement; also recorded: enhanced transpeptidation”.
With B2, the “fraction of aminolysis compared to wild type, in words” value was “further improved the fraction of aminolysis”.
Same read-out and setting: in the case of B4 it was “improvement in fraction of aminolysis obtained; also recorded: most dramatic improvement; also recorded: enhanced transpeptidation”; in that of B6, “improvement in fraction of aminolysis obtained; also recorded: most effective at increasing the fraction of aminolysis”.
B8: the “fraction of aminolysis compared to wild type, in words” value is “improvement in fraction of aminolysis obtained; also recorded: most dramatic improvement; also recorded: enhanced transpeptidation”.
With B9, the “fraction of aminolysis compared to wild type, in words” value was “improvement in fraction of aminolysis obtained; also recorded: most dramatic improvement; also recorded: enhanced transpeptidation”.

A short description of the next test: Transpeptidation of FA-Ala-OBzl with H-Leu-NH2, Table 3. The class given is biochemical. To be noted: FA-Ala-OBzl 0.2 mM; H-Leu-NH2; pH 7.5. On the procedure:
as §1, §2, §3
Site specific mutagenesis was performed as described in Example 1 to produce the specific substitution mutants described below. Transamidation reactions were performed as described for Example 1.
In table 3, below, KN(app) represents the nucleophile concentration at which fa is half of the maximum value (a measure for the dissociation constant of the nucleophile). famax is the highest possible fa obtained at saturation of the enzyme with the nucleophile.
KN(app) indicates the concentration at which famax/2 is reached and thus describes the apparent binding constant of the nucleophile. Because the competing hydrolysis reaction is thought to occur while the leaving group remains attached to the to the acyl-enzyme intermediate, a low KN(app) is preferred.
As to B1, the fa is recorded as 0.97^a.
Consider B3, for which the fa was 0.98^b.
B4: the fa is 0.95^a.
B5: the fa is recorded as 1.0^b.
On the same count and under the same terms, in the case of B6 it was 0.96^a; in that of B7, 0.97^a.
Turning to B8, the fa is reported as 0.78^b.
On to B9, for which the fa was 0.96^a.

Staying with this test, now noted: compared with wild type, Table 3.
For B1, the “change in famax and KN(app), in words” value is on record as “increase in famax while decreasing KN(app)”.
Same read-out and setting: the value for B3 was “increase in both famax and KN(app)”.
On the same count and under the same terms, the value for B5 was “increase in both famax and KN(app)”.
Same read-out and setting: the value for B6 was “increase in both famax and KN(app)”; that for B7 was “increase in both famax and KN(app)”; that for B9 was “increase in both famax and KN(app)”.

The same test, now with this note: nucleophile H-Leu-NH2 concentration at which fa is half of maximum; FA-Ala-OBzl 0.2 mM; pH 7.5.
In the case of B1, the “KN(app)” value is 0.93^a mM.
As to B4, the “KN(app)” value is reported as 0.74^b mM.
Same read-out and setting: in the case of B8 it was 5.2^c mM; in that of B9, 2.3^b mM.

The next test in a line: Transpeptidation of Bz-G-A-R-A-R-X-OH at pH 7.5 at 50% substrate consumption, Table 4. To be noted: leaving group A, 375 mM H-Leu-NH2. On the set-up: key to fa: fraction: aminolysis product / sum of all products formed. The class given is biochemical. As for the experimental part: as §1, §2, §3
Site specific mutagenesis was performed as described for Example 1 to generate the specific mutants described below. Transamidation reactions were performed as described for Examples 1.
As for B10, the “Pmax (peak product yield)” value is listed as >0.07.

Still in this test, the particulars now being: leaving group A, 50% substrate consumption, 375 mM H-Leu-NH2.
For B10, the fa was 0.18.

The test is the same for the next values; noted with them: leaving group A, 50% substrate consumption, 375 mM H-Leu-NH2, 2 mM substrate, [E] 0.1 mg/mL.
With B10, the “t” value worked out at 3200 min.

The test is the same for the next values; noted with them: leaving group L, 375 mM H-Leu-NH2.
For the molecule B10, the “Pmax (peak product yield)” value is recorded as >0.04.

The test is the same for the next values; noted with them: leaving group L, 50% substrate consumption, 375 mM H-Leu-NH2.
For the molecule B10, the fa is 0.10.

The test is the same for the next values; noted with them: leaving group L, 50% substrate consumption, 375 mM H-Leu-NH2, 2 mM substrate, [E] 0.1 mg/mL.
Consider B10, for which the “t” value was found to be 3500 min.

The values above are taken from patent publication US20010010923A1, “MODIFIED CARBOXYPEPTIDASE” (priority 1997, published 2001).
